Test results taken from patent US20060263349A1.

Molecular target: human CD20 on WIL2-S B lymphoblast cells (human) (UniProt P11836)
Test: cell-based or functional assay

Sequence of UniProt P11836 (P11836 whole entry): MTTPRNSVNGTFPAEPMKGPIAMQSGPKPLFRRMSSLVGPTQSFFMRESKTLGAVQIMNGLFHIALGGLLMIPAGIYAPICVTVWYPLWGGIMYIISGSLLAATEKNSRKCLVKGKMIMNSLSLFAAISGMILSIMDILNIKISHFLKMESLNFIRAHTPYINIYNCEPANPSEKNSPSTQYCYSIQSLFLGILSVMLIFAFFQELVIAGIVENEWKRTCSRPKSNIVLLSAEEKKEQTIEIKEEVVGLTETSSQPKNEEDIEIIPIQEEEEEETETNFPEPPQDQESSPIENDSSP

CDC activity above background cell lysis at 0.4 µg/mL Rituximab: 25 to 30%
Rituximab concentration at maximal cell lysis (CDC, WIL2-S cells, … GLO): 5 µg/mL
percentage of live cells remaining at 1 µg/mL Rituximab (control): 40%
Substance: Rituximab (antibody)
